In the experiment the target is SCO3201 (amino acids 21–216), TetR/AcrR-like regulator from Streptomyces coelicolor (Streptomyces coelicolor) (UniProt Q9KYU4). Description: SAXS.

The stoichiometry N is a count of units in the complex or per binding partner. “SCO3201 (amino acids 21–216), TetR/AcrR-like regulator from Streptomyces coelicolor (from UniProt Q9KYU4 21-216) (domain or fragment)”: the stoichiometry N is 2.

The values are drawn from PMC10087246.
